# Legend:
# [1] = system: recombinant human alpha 1-antitrypsin (AAT) derived from recombinant CHO cells
# [2] = biological target: another recombinant AAT (R&D systems) (UniProt P01009)
# [3] = system: mouse AAT in mouse plasma
# [4] = biological target: plasma-derived human alpha 1-antitrypsin (AAT) (UniProt P01009)
substance,measurement,setting,value
trypsin,trypsin activity (fluorogenic peptide substrate),[1],"At a concentration of 5 ng/ml, the recombinant AAT described and obtained by the methods presented herein (ExcellGene) drastically reduced trypsin activity"
same,trypsin activity (fluorogenic peptide substrate),[2],drastically reduced trypsin activity in a similar manner as ... another recombinant AAT (R&D systems)
same,trypsin activity (fluorogenic peptide substrate),[3],drastically reduced trypsin activity in a similar manner as ... mouse plasma diluted from a sample that contained about 1.2 g/L mouse AAT
same,trypsin activity (fluorogenic peptide substrate),[4],drastically reduced trypsin activity in a similar manner as a plasma-derived AAT (Prolastin)

# — patent US20220112270
